Six molecules from patent publication US20230242577A1 (UBIPROTEIN, published 2023) can be followed below.

B1: pCMV3-C-myc-VEGFA WT (ligand)
chain: APMAEGGGQNHHEVVKFMDVYQRSYCHPIETLVDIFQEYPDEIEYIFKPSCVPLMRCGGCCNDEGLECVPTEESNITMQIMRIKPHQGQHIGEMSFLQHNKCECRPKKDRARQEKKSVRGKGKGQKRKRKKSRPCGPCSERRKHLFVQDPQTCKCSCKNTDSRCKARQLELNERTCRCDKPRR
notes: also called vascular endothelial growth factor A; human VEGFA; not shown: myc tag of the pCMV3-C-myc vector
B2: pcDNA3-myc-β-trophin WT (ligand)
chain: APMGGPELAQHEELTLLFHGTLQLGQALNGVYRTTEGRLTKARNSLGLYGRTIELLGQEVSRGRDAAQELRASLLETQMEEDILQLQAEATAEVLGEVAQAQKVLRDSVQRLEVQLRSAWLGPAYREFEVLKAHADKQSHILWALTGHVQRQRREMVAQQHRLRQIQERLHTAALPA
notes: also called human β-trophin; not shown: myc tag of the pcDNA3-myc vector
B3: pCMV3-C-myc-prepro-GHRL WT (ligand)
chain: GSSFLSPEHQRVQQRKESKKPPAKLQPRALAGWLRPEDGGQAEGAEDEMEVRFNAPFDVGIKLSGVQYQQHSQALGKFLQDILWEEAKEAPADK
notes: also called Ghrelin/obestatin preprohormone; appetite stimulating hormone precursor; not shown: myc tag of the pCMV3-C-myc vector
B4: pcDNA3-myc-G-CSF WT (ligand)
chain: TPLGPASSLPQSFLLKCLEQVRKIQGDGAALQEKLVSECATYKLCHPEELVLLGHSLGIPWAPLSSCPSQALQLAGCLSQLHSGLFLYQGLLQALEGISPELGPTLDTLQLDVADFATTIWQQMEELGMAPALQPTQGAMPAFASAFQRRAGGVLVASHLQSFLEVSYRVLRHLAQP
notes: also called human G-CSF; not shown: myc tag of the pcDNA3-myc vector
B5: pcDNA3-myc-GLP-1 WT (ligand)
chain: HAEGTFTSDVSSYLEGQAAKEFIAWLVKGRG
notes: also called glucagon-like peptide-1; human GLP-1; not shown: myc tag of the pcDNA3-myc vector
B6: pcDNA3-myc-interferon-β WT (ligand)
chain: MSYNLLGFLQRSSNFQCQKLLWQLNGRLEYCLKDRMNFDIPEEIKQLQQFQKEDAALTIYEMLQNIFAIFRQDSSSTGWNETIVENLLANVYHQINHLKTVLEEKLEKEDFTRGKLMSSLHLKRYYGRILHYLKAKEYSHCAWTIVRVEILRNFYFINRLTGYLRN
notes: also called IFN-β; human interferon-β; not shown: myc tag of the pcDNA3-myc vector

This assay has as its target T1, HA-ubiquitin (from pMT123-HA-ubiquitin) (UniProt P0CG47 1-76).
T1 construct: one ubiquitin unit is residues 1-76; not shown: HA tag of pMT123-HA-ubiquitin
As to the kind of experiment: anti-myc IP, anti-HA blot, HEK 293T co-transfected with HA-ubiquitin (ubiquitination).
For B1, the binding result was “binds”. As for B2, the binding result is “binds”.

Take B3: the binding result is given as “binds”. To B4 belongs “binds”.

As to B5, the binding result is recorded as “binds”. On to B6, for which the binding result was “binds”.
